Columns and labels:
[1] = molecular target: HIV-1 Env of isolate 92TH021 (HIV-1); experiment: cell-based or functional assay
[2] = molecular target: HIV-1 JR-CSF Env T388A (HIV-1 (isolate JR-CSF)) (UniProt P20871); experiment: cell-based or functional assay
[3] = molecular target: Env of the clade A HIV-1 pseudoviruses of the cross-clade 162-pseudovirus panel (n = 26); experiment: cell-based or functional assay
[4] = molecular target: HIV-1 JR-CSF Env T303A (HIV-1 JR-CSF) (UniProt P20871); experiment: cell-based or functional assay
[5] = molecular target: HIV-1 JR-CSF Env K305A (HIV-1 JR-CSF) (UniProt P20871); experiment: cell-based or functional assay
[6] = molecular target: HIV-1 JR-CSF Env P299A (HIV-1 JR-CSF) (UniProt P20871); experiment: cell-based or functional assay
[7] = molecular target: Env of the clade F HIV-1 pseudoviruses of the cross-clade 162-pseudovirus panel (n = 15); experiment: cell-based or functional assay
[8] = molecular target: HIV-1 JR-CSF Env W395A (HIV-1 (isolate JR-CSF)) (UniProt P20871); experiment: cell-based or functional assay
[9] = molecular target: HIV-1 JR-CSF Env I420A (HIV-1 (isolate JR-CSF)) (UniProt P20871); experiment: cell-based or functional assay
[10] = molecular target: HIV-1 Env of isolate 93UG077 (HIV-1); experiment: cell-based or functional assay
[11] = molecular target: HIV-1 JRCSF envelope glycoprotein (Env) (HIV-1) (UniProt P20871); experiment: cell-based or functional assay
[12] = molecular target: HIV-1 JR-CSF Env I414A (HIV-1 (isolate JR-CSF)) (UniProt P20871); experiment: cell-based or functional assay
[13] = molecular target: HIV-1 JR-CSF Env T320A (HIV-1 isolate JR-CSF) (UniProt P20871); experiment: cell-based or functional assay
[14] = molecular target: HIV-1 Env of isolate MGRM-A-008 (HIV-1); experiment: cell-based or functional assay
[15] = molecular target: HIV-1 JR-CSF Env T341A (HIV-1 isolate JR-CSF) (UniProt P20871); experiment: cell-based or functional assay
[16] = molecular target: HIV-1 JR-CSF Env N396A (HIV-1 (isolate JR-CSF)) (UniProt P20871); experiment: cell-based or functional assay
[17] = molecular target: Env of the clade G HIV-1 pseudoviruses of the cross-clade 162-pseudovirus panel (n = 15); experiment: cell-based or functional assay
[18] = molecular target: HIV-1 JR-CSF Env S393A (HIV-1 (isolate JR-CSF)) (UniProt P20871); experiment: cell-based or functional assay
[19] = molecular target: HIV-1 JR-CSF Env N411A (HIV-1 (isolate JR-CSF)) (UniProt P20871); experiment: cell-based or functional assay
[20] = molecular target: HIV-1 JR-CSF Env D417A (HIV-1 (isolate JR-CSF)) (UniProt P20871); experiment: cell-based or functional assay
[21] = molecular target: HIV-1 JR-CSF Env N301A (HIV-1 JR-CSF) (UniProt P20871); experiment: cell-based or functional assay
[22] = molecular target: HIV-1 JR-CSF Env N339A (HIV-1 isolate JR-CSF) (UniProt P20871); experiment: cell-based or functional assay
[23] = molecular target: HIV-1 JR-CSF Env T202A (HIV-1 JR-CSF) (UniProt P20871); experiment: cell-based or functional assay
[24] = molecular target: HIV-1 Env of isolate 92RW008 (HIV-1); experiment: cell-based or functional assay
[25] = molecular target: HIV-1 JR-CSF Env S199A (HIV-1 JR-CSF) (UniProt P20871); experiment: cell-based or functional assay
[26] = molecular target: HIV-1 Env of isolate 92WR020 (HIV-1); experiment: cell-based or functional assay
[27] = molecular target: HIV-1 JR-CSF Env I309A (HIV-1 JR-CSF) (UniProt P20871); experiment: cell-based or functional assay
[28] = molecular target: HIV-1 JR-CSF Env T413A (HIV-1 (isolate JR-CSF)) (UniProt P20871); experiment: cell-based or functional assay
[29] = molecular target: HIV-1 JR-CSF Env S334A (HIV-1 isolate JR-CSF) (UniProt P20871); experiment: cell-based or functional assay
[30] = molecular target: HIV-1 JR-CSF Env I326A (HIV-1 isolate JR-CSF) (UniProt P20871); experiment: cell-based or functional assay
[31] = molecular target: HIV-1 NL43 envelope glycoprotein (Env) (HIV-1); experiment: cell-based or functional assay
[32] = molecular target: HIV-1 Env of isolate MGRM-A-006 (HIV-1); experiment: cell-based or functional assay
[33] = molecular target: HIV-1 JR-CSF Env T394A (HIV-1 (isolate JR-CSF)) (UniProt P20871); experiment: cell-based or functional assay
[34] = molecular target: HIV-1 Env of isolate MGRM-A-004 (HIV-1); experiment: cell-based or functional assay
[35] = molecular target: HIV-1 JR-CSF Env I323A (HIV-1 isolate JR-CSF) (UniProt P20871); experiment: cell-based or functional assay
[36] = molecular target: HIV-1 JR-CSF Env K343A (HIV-1 isolate JR-CSF) (UniProt P20871); experiment: cell-based or functional assay
[37] = molecular target: HIV-1 JR-CSF Env S306A (HIV-1 JR-CSF) (UniProt P20871); experiment: cell-based or functional assay
[38] = molecular target: HIV-1 Env of isolate CMU02 (HIV-1); experiment: cell-based or functional assay
[39] = molecular target: HIV-1 JRFL envelope glycoprotein (Env) (HIV-1); experiment: cell-based or functional assay
[40] = molecular target: HIV-1 MGRM-A-010 envelope glycoprotein (Env) (HIV-1); experiment: cell-based or functional assay
[41] = molecular target: WT JR-FL gp120 (HIV-1 (isolate JR-FL)); experiment: ELISA on coated gp120; EC50 by nonlinear regression
[42] = molecular target: JR-FL gp120 ΔV1/ΔV2 (HIV-1 (isolate JR-FL)); experiment: as above

B1: PGT-125 (antibody, V domains shown)
VH: QSQLQESGPRLVEASETLSLTCNVSGESTGACTYFWGWVRQAPGKGLEWIGSLSHCQSFWGSGWTFHNPSLKSRLTISLDTPKNQVFLKLTSLTAADTATYYCARFDGEVLVYNHWPKPAWVDLWGRGIPVTVSS
VL: QSALTQPPSASGSPGQSITISCNGTATNFVSWYQQFPDKAPKLIIFGVDKRPPGVPDRFSGSRSGTTASLTVSRLQTDDEAVYYCGSLVGNWDVIFGGGTTLTVL
IC50 (µg/mL), pseudovirus neutralization [1]: 0.006 µg/mL
Polyclonal Transfectant Neutralization Index (well 5123 A6) [1]: 50.6
Primary Neutralization Index (B cell culture well 5123 A6) [1]: 133
Fold IC50 increase relative to wild-type [2]: 0.6 fold
Median IC50 against viruses neutralized with an IC50 <50 µg/ml [3]: 0.01 µg/mL
Fold IC50 increase relative to wild-type [4]: > 250 fold
Fold IC50 increase relative to wild-type [5]: 1.9 fold
Fold IC50 increase relative to wild-type [6]: 0.2 fold
Median IC50 against viruses neutralized with an IC50 <50 µg/ml [7]: 0.04 µg/mL
Fold IC50 increase relative to wild-type [8]: 0.9 fold
Fold IC50 increase relative to wild-type [9]: 1.1 fold
IC50 (µg/mL), pseudovirus neutralization [10]: 0.012 µg/mL
IC50 neutralization [11]: 0.006 µg/mL
Fold IC50 increase relative to wild-type [12]: 0.3 fold
Fold IC50 increase relative to wild-type [13]: 0.8 fold
IC50 (µg/mL), pseudovirus neutralization [14]: > 50 µg/mL
Fold IC50 increase relative to wild-type [15]: 1.1 fold
Fold IC50 increase relative to wild-type [16]: 1.6 fold
Median IC50 against viruses neutralized with an IC50 <50 µg/ml [17]: 0.02 µg/mL
Fold IC50 increase relative to wild-type [18]: 0.5 fold
Fold IC50 increase relative to wild-type [19]: 0.5 fold
Fold IC50 increase relative to wild-type [20]: 0.5 fold
Fold IC50 increase relative to wild-type [21]: 213 fold
Fold IC50 increase relative to wild-type [22]: 0.9 fold
Fold IC50 increase relative to wild-type [23]: 0.8 fold
IC50 (µg/mL), pseudovirus neutralization [24]: 0.004 µg/mL
Fold IC50 increase relative to wild-type [25]: 0.7 fold
IC50 (µg/mL), pseudovirus neutralization [26]: 0.004 µg/mL
Fold IC50 increase relative to wild-type [27]: 1 fold
Fold IC50 increase relative to wild-type [28]: 0.5 fold
Fold IC50 increase relative to wild-type [29]: 0.8 fold
Fold IC50 increase relative to wild-type [30]: 0.9 fold
IC50 neutralization [31]: > 10 µg/mL
IC50 (µg/mL), pseudovirus neutralization [32]: > 50 µg/mL
Fold IC50 increase relative to wild-type [33]: 0.6 fold
IC50 (µg/mL), pseudovirus neutralization [34]: > 50 µg/mL
Fold IC50 increase relative to wild-type [35]: 0.9 fold
Fold IC50 increase relative to wild-type [36]: 0.7 fold
Fold IC50 increase relative to wild-type [37]: 1.2 fold
IC50 (µg/mL), pseudovirus neutralization [38]: > 50 µg/mL
IC50 neutralization [39]: 0.0156 µg/mL
IC50 neutralization [40]: 0.0055 µg/mL
EC50 [41]: 0.2 µg/mL
EC50 [42]: 0.6 µg/mL

B2: PGT-127 (antibody, V domains shown)
VH: QPQLQESGPGLVEASETLSLTCTVSGDSTGRCNYFWGWVRQPPGKGLEWIGSLSHCRSYYNTDWTYHNPSLKSRLTISLDTPKNQVFLRLTSVTAADTATYYCARFGGEVLVYRDWPKPAWVDLWGRGTLVVTVS
VL: QSALTQPPSASGSPGQSITISCTGTSNNFVSWYQQYPGKAPKLVIYEVNKRPSGVPDRFSGSKSGSTASLTVSGLQADDEGVYYCSSLVGNWDVIFGGGTKLTVL
IC50 (µg/mL), pseudovirus neutralization [1]: > 50 µg/mL
Polyclonal Transfectant Neutralization Index (well 5145 B14) [1]: 0.94
Primary Neutralization Index (B cell culture well 5145 B14) [1]: 1
Fold IC50 increase relative to wild-type [2]: 0.5 fold
Median IC50 against viruses neutralized with an IC50 <50 µg/ml [3]: 0.02 µg/mL
Fold IC50 increase relative to wild-type [4]: > 500 fold
Fold IC50 increase relative to wild-type [5]: 2.6 fold
Fold IC50 increase relative to wild-type [6]: 0.2 fold
Median IC50 against viruses neutralized with an IC50 <50 µg/ml [7]: 0.65 µg/mL
Fold IC50 increase relative to wild-type [8]: 1.6 fold
Fold IC50 increase relative to wild-type [9]: 1.8 fold
IC50 (µg/mL), pseudovirus neutralization [10]: 0.055 µg/mL
Fold IC50 increase relative to wild-type [12]: 2.2 fold
Fold IC50 increase relative to wild-type [13]: 1.8 fold
IC50 (µg/mL), pseudovirus neutralization [14]: > 50 µg/mL
Fold IC50 increase relative to wild-type [15]: 1.7 fold
Fold IC50 increase relative to wild-type [16]: 2.4 fold
Median IC50 against viruses neutralized with an IC50 <50 µg/ml [17]: 0.22 µg/mL
Fold IC50 increase relative to wild-type [18]: 1.2 fold
Fold IC50 increase relative to wild-type [19]: 0.8 fold
Fold IC50 increase relative to wild-type [20]: 0.4 fold
Fold IC50 increase relative to wild-type [21]: > 250 fold
Fold IC50 increase relative to wild-type [22]: 1.1 fold
Fold IC50 increase relative to wild-type [23]: 1.8 fold
IC50 (µg/mL), pseudovirus neutralization [24]: 0.012 µg/mL
Fold IC50 increase relative to wild-type [25]: 3 fold
IC50 (µg/mL), pseudovirus neutralization [26]: 0.01 µg/mL
Fold IC50 increase relative to wild-type [27]: 6 fold
Fold IC50 increase relative to wild-type [28]: 0.8 fold
Fold IC50 increase relative to wild-type [29]: > 500 fold
Fold IC50 increase relative to wild-type [30]: 3.5 fold
IC50 (µg/mL), pseudovirus neutralization [32]: > 50 µg/mL
Fold IC50 increase relative to wild-type [33]: 1.6 fold
IC50 (µg/mL), pseudovirus neutralization [34]: > 50 µg/mL
Fold IC50 increase relative to wild-type [35]: 4 fold
Fold IC50 increase relative to wild-type [36]: 1 fold
Fold IC50 increase relative to wild-type [37]: 0.6 fold
IC50 (µg/mL), pseudovirus neutralization [38]: > 50 µg/mL
EC50 [41]: 0.1 µg/mL
EC50 [42]: 0.7 µg/mL
